# Assay results as given in patent US20220363763A1 (ABL BIO, published 2022).
# Numbering of substitutions follows the chain as printed.
# T1: recombinant his-tag human LAG3-ECD protein (human, UniProt P18627 23-450)
# T1 construct: extracellular domain; not shown: his tag
# T1 sequence (looked up): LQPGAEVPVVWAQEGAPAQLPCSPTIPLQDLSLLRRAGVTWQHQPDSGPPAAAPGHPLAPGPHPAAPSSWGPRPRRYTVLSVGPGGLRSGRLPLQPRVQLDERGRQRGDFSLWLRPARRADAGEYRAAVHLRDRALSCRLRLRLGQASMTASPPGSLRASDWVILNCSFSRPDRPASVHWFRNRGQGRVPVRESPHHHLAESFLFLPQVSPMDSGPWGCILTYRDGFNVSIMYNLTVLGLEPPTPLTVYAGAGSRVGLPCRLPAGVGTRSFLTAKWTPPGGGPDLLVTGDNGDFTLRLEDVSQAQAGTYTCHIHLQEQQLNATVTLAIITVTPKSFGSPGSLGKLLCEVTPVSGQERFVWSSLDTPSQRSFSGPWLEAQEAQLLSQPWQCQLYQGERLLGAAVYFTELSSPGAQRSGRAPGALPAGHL
# T2: human LAG3 (construct not stated) (human, UniProt P18627 23-450, limits assumed)
# T2 construct: also called human LAG3 protein; antigen
# T2 sequence (looked up): T1 sequence (looked up)
# B1: NLAG3-HDB169-S136 (antibody, human IgG1, V domains shown)
# VH: QVQLVQSGAEVKKPGSSVKVSCKASGGTFSSYAISWVRQAPGQGLEWMGGIIPIFGTANYAQKFQGRVTITADESTSTAYMELSSLRSEDTAVYYCTRGQDSTWYSSFDYWGQGTLVTVSS
# VL: AIRMTQSPSSLSASVGDRVTITCRASQSISSYLNWYQQKPGKAPNLLIYAVSTLQSGVPSRFSGSGSGTVFTLTISSLQPEDFATYFCQQGNSFPLTFGGGTKVEIKR
# notes: Short label tied by its unique suffix
# B2: NLAG3-HDB169-S87 (antibody, human IgG1, V domains shown)
# VH: QVQLVQSGAEVKKPGSSVKVSCKASGGTFSSYAISWVRQAPGQGLEWMGGIIPIFGTANYAQKFQGRVTITADESTSTAYMELSSLRSEDTAVYYCAKDIRWYYGMDVWGQGTTVTVSS
# VL: DIVMTQSPSSVSAFVGDRVTITCRASQGVSSWLAWFQQKPGKAPKLLIYAASTLQSGVPSRFSGRGYGTEFTLTISSLQPEDLATYYCQQVKSFPLTFGGGTKVDIKR
# notes: as for B1
# B3: 147H-6 (antibody, V domains shown)
# VH: QVQLVQSGAEVKKPGASVKVSCKASGYTFTNYWLGWIKQAPGQGLEWIGDIYPGGDYINYNEKFKGKATLTADTSISTAYMELSRLRSDDTAVYYCARPNLPGDYWGQGTTVTVSS
# VL: DIVMTQSPLSLPVTPGEPASISCRSSKSLLHSNGITYLYWYLQKPGQSPQLLIYQVSNLASGVPDRFSGSGSGTDFTLKISRVEAEDVGVYYCAQNLELPWTFGGGTKVEIK
# notes: Common light chain; human gamma 1 / kappa constant domains
# B4: 147H chimeric antibody (antibody, V domains shown)
# VH: QVQLQQSGSELVRPGTSVKISCKASGYTFTNYWLGWIKQRPGHGLEWIGDIYPGGDYINYNEKFKGKATLSADTSSSTAYMQLSSLTSEDSAVYFCARPNLPGDYWGQGTSVTVSS
# VL: B3 VL with S7A, P8A, L9F, L11N, P15L, E17T, P18S, D65G, K79R, V109L
# B5: 147H-7 (antibody, V domains shown)
# VH: B3 VH with Y95F
# VL: B3 VL
# notes: as for B3
# B6: 147H-14 (antibody, V domains shown)
# VH: B3 VH with Q1E, Y95F
# VL: B3 VL
# notes: as for B3
# B7: NLAG3-HDB323-S161 (antibody, human IgG1, V domains shown)
# VH: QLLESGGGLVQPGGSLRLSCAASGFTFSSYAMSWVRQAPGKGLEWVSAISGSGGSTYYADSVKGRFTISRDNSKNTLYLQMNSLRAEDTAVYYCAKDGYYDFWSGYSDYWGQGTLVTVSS
# VL: AIQLTQSPSSLSASVGDRVTITCRASEGISGWLAWYQQIPGKAPKLLIYAASSLETGVPSRFSGSGYGTDFTLTISSLQPEDFATYYCQQADSFPFTFGPGTKVEIKR
# notes: as for B1
# B8: NLAG3-HDB169-S120 (antibody, human IgG1, V domains shown)
# VH: QVQLVQSGAEVKKPGSSVKVSCKASGGTFSSYAISWVRQAPGQGLEWMGGIIPIFGTANYAQKFQGRVTITADESTSTAYMELSSLRSEDTAVYYCARSGDRYDFWSGYWGQGTLVTVSS
# VL: EIVLTQSPSSVSASVGDRVTITCRASRGISSWLAWYQQKPGKAPKLLIYAASTLQSGVPSRFSGSGSGTDFTLTISSLQPEDFATYYCQQAKSFPLTFGGGTKVEIKR
# notes: as for B1
# B9: NLAG3-HDB169-S24 (antibody, human IgG1, V domains shown)
# VH: QVQLVQSGAEVKKPGSSVKVSCKASGGTFSSYAISWVRQAPGQGLEWMGGIIPIFGTANYAQKFQGRVTITADESTSTAYMELSSLRSEDTAVYYCTREPHFDYWGQGTLVTVSS
# VL: EIVMTQSPSSLSASVGDRVTITCQASQDISNYLNWYQQKPGKAPKLLIYDASNLETGVPSRFSGSGSGTEFTLTISSLRPEDFATYFCQQADSFPITFGQGTRLEIKR
# notes: as for B1
# B10: A1 (antibody, V domains shown)
# VH: EVQLVESGGGLVQPGGSLRLSCAASGFTFSSYDMSWVRQAPGKSLEWVATISDAGGYIYYRDSVKGRFTISRDNAKNSLYLQMNSLRDEDTAVYICARELLHRYALDYWGQGTTVTVSS
# VL: DIQMTQSPSSLSASVGDRVTITCKASQDVTPAVAWYQQKPGKAPKLLIYSTSSRYTGVPSRFSGSGSGTDFTFTISSLQPEDIATYYCQQHYTTPLTFGQGTKLEIK
# B11: Hu1210-31 (antibody, V domains shown)
# VH: B10 VH with S44G, A54G, R61S, D88A, L100F, L101G, H102K
# VL: DIQMTQSPSSLSASVGDRVTITCKASQDVTPAVAWYQQKPGKAPKLLIYSTSSRYTGVPSRFSGSGSGTDFTLTISSLQPEDFATYYCQQHYTTPLTFGQGTKLEIKR
# notes: Hu1210 VH.5b x Vk.2; human gamma 1 / kappa constant domains
# B12: Hu1210-27 (antibody, V domains shown)
# VH: B10 VH with S44G, A54G, R61S, D88A, L100F, L101G, H102K, T114L
# VL: B11 VL
# notes: Hu1210 VH.5a x Vk.2; human gamma 1 / kappa constant domains
# B13: B1 (antibody, V domains shown)
# VH: B10 VH with L100I, L101F, H102N
# VL: B10 VL
# B14: C4 (antibody, V domains shown)
# VH: B10 VH with L100F, L101G, H102K, Y108S
# VL: B10 VL with T30W, Y92S
# B15: C6 (antibody, V domains shown)
# VH: B10 VH with L101Y, H102F
# VL: B10 VL
# B16: B3 (antibody, V domains shown)
# VH: B10 VH with L100F, L101G, H102K
# VL: B10 VL with S26K, Q89M
# B17: A3 (antibody, V domains shown)
# VH: B10 VH with L100F, L101G, H102K
# VL: B10 VL with Y92S, T93D, T94A
# B18: Hu1210-36 (antibody, V domains shown)
# VH: B10 VH with A40T, G42E, A54G, R61S, S78N, D88A, L100F, L101G, H102K, T114L
# VL: B11 VL
# notes: Hu1210 VH.5d (printed 'VH.Sd') x Vk.2; human gamma 1 / kappa constant domains
# B19: C3 (antibody, V domains shown)
# VH: B10 VH with L101H, H102F
# VL: B10 VL
# B20: A2 (antibody, V domains shown)
# VH: B10 VH with L101R, H102G
# VL: B10 VL
# How the values were obtained:
# [1] = biological target: T1, recombinant his-tag human LAG3-ECD …; assay: SPR Biacore T200, antibody captured by anti-human Fc, LAG3-ECD-his injected
# Method: The binding of the S20, S24, S27, S31, S87, S119, S120, S128, S136, S161 and T99 antibodies to recombinant his-tag human LAG3-ECD protein was examined by Biacore T200 using a capture method. Anti-LAG3 antibodies were captured using anti-human Fc antibody. The anti-human Fc antibody was coated on chip. Serial concentrations of his-tag human LAG3-ECD protein (0-4 nM) were injected over capture antibodies at the flow rate of 30 μl/min. The dissociation phase was 900 s or 550 s. The Biacore results for the anti-LAG3 antibodies have shown that these anti-LAG3 antibodies are high affinity binder to human LAG3.
# [2] = biological target: T2, human LAG3 (construct not stated); assay: BLI Octet Red 96, full kinetics, antigen 50-3.125 nM
# Method: The binding affinity was calculated by software in Octet® RED96 System.
# [3] = biological target: T2, human LAG3 (construct not stated); assay: BLI Octet Red 96, affinity ranking
# [4] = biological target: T3, human PD-L1 (construct not stated) (human, UniProt Q9NZQ7 19-239, limits assumed); assay: SPR Biacore, affinity ranking
# T3 construct: also called B7-H1 (PD-L1); PD-L1 protein
# [5] = biological target: T4, human PD-L1 expressed on mammalian cells (human, UniProt Q9NZQ7 19-290); assay: FACS receptor blocking on PDL1-CHOK1 cells, competitor Bio-PD1 (30 µg/ml)
# T4 construct: whole, on cells; also called PDL1-CHOK1 cells; PDL1-Raji cells
# Method: To evaluate the blocking effect of humanized antibodies on human PD-L1 expressed on mammalian cells to bind to its receptor PD-1, the FACS-based receptor blocking assay was employed. Briefly, PDL1-CHOK1 cells were firstly incubated with 3-fold serious diluted HL1210-3 mouse mAb starting at 20 μg/ml at RT for 1 hour. After wash by FACS buffer (PBS with 2% FBS), the biotin-labeled huPD-1 were added to each well and incubated at RT for 1 hour. Then, the Streptavidin-PE was added to each well for 0.5 hour post twice wash with FACS buffer. The mean florescence intensity (MFI) of PE was evaluated by FACSAriaIII.
# [6] = biological target: T5, human PD-L1-his taq protein (human, UniProt Q9NZQ7 19-239, limits assumed); assay: SPR Biacore T200, antibody captured, PD-L1-his injected
# T5 construct: also called recombinant PD-L1 protein; recombinant human PD-L1; not shown: his tag
# Method: The binding of the humanized antibodies to recombinant PD-L1 protein (human PD-L1-his taq) was tested by BIACORE™ using a capture method. The HL1210-3 mouse mAb were captured using anti-mouse Fc antibody coated on a CM5 chip. A series dilution of human PD-L1-his taq protein was injected over captured antibody for 3 mins at a flow rate of […]. The antigen was allowed to dissociate for 900 s. All the experiments were carried out on a Biacore T200.
# T5 sequence (Q9NZQ7 19-239 limits assumed): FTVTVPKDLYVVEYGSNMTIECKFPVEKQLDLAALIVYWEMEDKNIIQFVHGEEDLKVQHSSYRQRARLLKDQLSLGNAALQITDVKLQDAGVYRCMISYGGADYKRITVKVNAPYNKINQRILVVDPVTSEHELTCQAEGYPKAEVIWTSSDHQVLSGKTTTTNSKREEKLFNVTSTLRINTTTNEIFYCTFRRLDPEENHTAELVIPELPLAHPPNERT
# T3 sequence (Q9NZQ7 19-239 limits assumed): as above
# T4 sequence (Q9NZQ7 19-290): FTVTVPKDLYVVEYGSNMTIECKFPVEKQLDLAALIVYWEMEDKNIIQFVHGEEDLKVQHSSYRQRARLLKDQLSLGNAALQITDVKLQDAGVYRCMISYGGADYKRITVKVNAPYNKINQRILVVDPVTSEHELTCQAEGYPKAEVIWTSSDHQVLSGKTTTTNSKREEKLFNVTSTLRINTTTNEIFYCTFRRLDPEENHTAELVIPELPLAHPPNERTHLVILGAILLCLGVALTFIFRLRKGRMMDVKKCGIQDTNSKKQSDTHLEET
binder,measurement,setting,value
B1,Kd,[1],0.104 nM
same,koff,[1],8.27e-05 s⁻¹
same,kon,[1],798000 M⁻¹ s⁻¹
B2,Kd,[1],0.00251 nM
same,koff,[1],2.33e-06 s⁻¹
same,kon,[1],928000 M⁻¹ s⁻¹
B3,Kd,[2],24.8 nM
same,koff,[2],0.00259 s⁻¹
same,kon,[2],105000 M⁻¹ s⁻¹
same,Kd,[3],15.3 nM
same,koff,[3],0.00184 s⁻¹
same,kon,[3],120000 M⁻¹ s⁻¹
B4,Kd,[2],27.1 nM
same,koff,[2],0.00217 s⁻¹
same,kon,[2],80100 M⁻¹ s⁻¹
B5,Kd,[2],26.5 nM
same,koff,[2],0.00312 s⁻¹
same,kon,[2],118000 M⁻¹ s⁻¹
same,Kd,[3],15.7 nM
same,koff,[3],0.00239 s⁻¹
same,kon,[3],152000 M⁻¹ s⁻¹
B6,Kd,[2],20.7 nM
same,koff,[2],0.00204 s⁻¹
same,kon,[2],98700 M⁻¹ s⁻¹
same,Kd,[3],23.2 nM
same,koff,[3],0.0025 s⁻¹
same,kon,[3],108000 M⁻¹ s⁻¹
B7,Kd,[1],0.892 nM
same,koff,[1],0.000553 s⁻¹
same,kon,[1],620000 M⁻¹ s⁻¹
B8,Kd,[1],1.88 nM
same,koff,[1],0.00264 s⁻¹
same,kon,[1],1.4e+06 M⁻¹ s⁻¹
B9,Kd,[1],6.73 nM
same,koff,[1],0.012 s⁻¹
same,kon,[1],1.79e+06 M⁻¹ s⁻¹
B10,Kd,[4],1.36 nM
same,koff,[4],0.000276 s⁻¹
same,kon,[4],203000 M⁻¹ s⁻¹
B11,TOP,[5],92.9
same,Kd,[6],0.786 nM
same,koff,[6],0.000117 s⁻¹
same,kon,[6],149000 M⁻¹ s⁻¹
B12,TOP,[5],104
B13,Kd,[4],1.6 nM
same,koff,[4],0.000261 s⁻¹
same,kon,[4],163000 M⁻¹ s⁻¹
B14,Kd,[4],4.5 nM
same,koff,[4],0.000506 s⁻¹
same,kon,[4],113000 M⁻¹ s⁻¹
B15,Kd,[4],1.63 nM
same,koff,[4],0.000334 s⁻¹
same,kon,[4],206000 M⁻¹ s⁻¹
B16,Kd,[4],2.49 nM
same,koff,[4],0.000296 s⁻¹
same,kon,[4],119000 M⁻¹ s⁻¹
B17,Kd,[4],1.49 nM
same,koff,[4],0.000324 s⁻¹
same,kon,[4],218000 M⁻¹ s⁻¹
B18,TOP,[5],91.8
same,Kd,[6],0.538 nM
same,koff,[6],7.85e-05 s⁻¹
same,kon,[6],146000 M⁻¹ s⁻¹
B19,Kd,[4],1.37 nM
same,koff,[4],0.000299 s⁻¹
same,kon,[4],218000 M⁻¹ s⁻¹
B20,Kd,[4],2.55 nM
same,koff,[4],0.000475 s⁻¹
same,kon,[4],187000 M⁻¹ s⁻¹
